Experimental data taken from patent US20250073311A1, “DOSAGE REGIME” (ZEALAND PHARMA A/S, priority 2021, published 2025).
Numbered stars: 1 amine (or outer) side, 2 acyl side, 3 side chain; on linkers, the order of the positions; unused ones are H or OH. Square brackets hold non-standard residues; d marks the D form. Side chains are listed from the residue outwards. * marks the point of attachment. C18 diacid = O=C(O)CCCCCCCCCCCCCCCCC(=O)*; γGlu = O=C(O)[C@H](CCC(=O)[*:2])N[*:1]; Aib = CC(C)(N)C(=O)O

T1: human GLP-2 receptor (hGLP2-R) (human, UniProt O95838)
T1 sequence: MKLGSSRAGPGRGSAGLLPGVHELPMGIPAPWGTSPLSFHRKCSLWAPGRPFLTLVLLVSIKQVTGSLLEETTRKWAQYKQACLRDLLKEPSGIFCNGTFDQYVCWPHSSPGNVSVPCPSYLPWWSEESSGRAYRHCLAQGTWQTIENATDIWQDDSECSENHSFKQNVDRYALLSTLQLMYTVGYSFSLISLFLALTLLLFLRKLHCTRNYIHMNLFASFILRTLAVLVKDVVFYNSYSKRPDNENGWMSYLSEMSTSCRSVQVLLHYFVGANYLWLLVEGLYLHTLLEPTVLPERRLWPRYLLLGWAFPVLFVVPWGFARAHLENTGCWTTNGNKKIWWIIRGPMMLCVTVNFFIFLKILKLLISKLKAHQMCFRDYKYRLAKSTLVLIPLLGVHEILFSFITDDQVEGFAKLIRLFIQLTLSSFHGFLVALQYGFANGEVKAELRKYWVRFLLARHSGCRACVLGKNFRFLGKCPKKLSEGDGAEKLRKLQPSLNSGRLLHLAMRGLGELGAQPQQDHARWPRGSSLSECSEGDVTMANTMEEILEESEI

B1: Compound 25 (peptide)
peptide: H-H[Aib]EGTFTSELATILDK([γGlu-C18 diacid])QAARDFIAWLIEHKITD-OH
SMILES: CC[C@H](C)[C@H](NC(=O)[C@H](Cc1ccccc1)NC(=O)[C@H](CC(=O)O)NC(=O)[C@H](CCCNC(=N)N)NC(=O)[C@H](C)NC(=O)[C@H](C)NC(=O)[C@H](CCC(N)=O)NC(=O)[C@H](CCCCNC(=O)CC[C@H](NC(=O)CCCCCCCCCCCCCCCCC(=O)O)C(=O)O)NC(=O)[C@H](CC(=O)O)NC(=O)[C@H](CC(C)C)NC(=O)[C@@H](NC(=O)[C@@H](NC(=O)[C@H](C)NC(=O)[C@H](CC(C)C)NC(=O)[C@H](CCC(=O)O)NC(=O)[C@H](CO)NC(=O)[C@@H](NC(=O)[C@H](Cc1ccccc1)NC(=O)[C@@H](NC(=O)CNC(=O)[C@H](CCC(=O)O)NC(=O)C(C)(C)NC(=O)[C@@H](N)Cc1c[nH]cn1)[C@@H](C)O)[C@@H](C)O)[C@@H](C)O)[C@@H](C)CC)C(=O)N[C@@H](C)C(=O)N[C@@H](Cc1c[nH]c2ccccc12)C(=O)N[C@@H](CC(C)C)C(=O)N[C@H](C(=O)N[C@@H](CCC(=O)O)C(=O)N[C@@H](Cc1c[nH]cn1)C(=O)N[C@@H](CCCCN)C(=O)N[C@H](C(=O)N[C@H](C(=O)N[C@@H](CC(=O)O)C(=O)O)[C@@H](C)O)[C@@H](C)CC)[C@@H](C)CC
B2: Compound 28 (peptide)
peptide: H-H[Aib]EGSFTSELATILDK([γGlu-C18 diacid])QAARDFIAWLILHKITD-OH
SMILES: CC[C@H](C)[C@H](NC(=O)[C@H](Cc1ccccc1)NC(=O)[C@H](CC(=O)O)NC(=O)[C@H](CCCNC(=N)N)NC(=O)[C@H](C)NC(=O)[C@H](C)NC(=O)[C@H](CCC(N)=O)NC(=O)[C@H](CCCCNC(=O)CC[C@H](NC(=O)CCCCCCCCCCCCCCCCC(=O)O)C(=O)O)NC(=O)[C@H](CC(=O)O)NC(=O)[C@H](CC(C)C)NC(=O)[C@@H](NC(=O)[C@@H](NC(=O)[C@H](C)NC(=O)[C@H](CC(C)C)NC(=O)[C@H](CCC(=O)O)NC(=O)[C@H](CO)NC(=O)[C@@H](NC(=O)[C@H](Cc1ccccc1)NC(=O)[C@H](CO)NC(=O)CNC(=O)[C@H](CCC(=O)O)NC(=O)C(C)(C)NC(=O)[C@@H](N)Cc1c[nH]cn1)[C@@H](C)O)[C@@H](C)O)[C@@H](C)CC)C(=O)N[C@@H](C)C(=O)N[C@@H](Cc1c[nH]c2ccccc12)C(=O)N[C@@H](CC(C)C)C(=O)N[C@H](C(=O)N[C@@H](CC(C)C)C(=O)N[C@@H](Cc1c[nH]cn1)C(=O)N[C@@H](CCCCN)C(=O)N[C@H](C(=O)N[C@H](C(=O)N[C@@H](CC(=O)O)C(=O)O)[C@@H](C)O)[C@@H](C)CC)[C@@H](C)CC
B3: Compound 23 (peptide)
peptide: H-H[Aib]EGTFTSELATILDK([γGlu-C18 diacid])QAARDFIAWLIAHKITD-OH
SMILES: CC[C@H](C)[C@H](NC(=O)[C@H](CC(C)C)NC(=O)[C@H](Cc1c[nH]c2ccccc12)NC(=O)[C@H](C)NC(=O)[C@@H](NC(=O)[C@H](Cc1ccccc1)NC(=O)[C@H](CC(=O)O)NC(=O)[C@H](CCCNC(=N)N)NC(=O)[C@H](C)NC(=O)[C@H](C)NC(=O)[C@H](CCC(N)=O)NC(=O)[C@H](CCCCNC(=O)CC[C@H](NC(=O)CCCCCCCCCCCCCCCCC(=O)O)C(=O)O)NC(=O)[C@H](CC(=O)O)NC(=O)[C@H](CC(C)C)NC(=O)[C@@H](NC(=O)[C@@H](NC(=O)[C@H](C)NC(=O)[C@H](CC(C)C)NC(=O)[C@H](CCC(=O)O)NC(=O)[C@H](CO)NC(=O)[C@@H](NC(=O)[C@H](Cc1ccccc1)NC(=O)[C@@H](NC(=O)CNC(=O)[C@H](CCC(=O)O)NC(=O)C(C)(C)NC(=O)[C@@H](N)Cc1c[nH]cn1)[C@@H](C)O)[C@@H](C)O)[C@@H](C)O)[C@@H](C)CC)[C@@H](C)CC)C(=O)N[C@@H](C)C(=O)N[C@@H](Cc1c[nH]cn1)C(=O)N[C@@H](CCCCN)C(=O)N[C@H](C(=O)N[C@H](C(=O)N[C@@H](CC(=O)O)C(=O)O)[C@@H](C)O)[C@@H](C)CC
B4: Compound 26 (peptide)
peptide: H-H[Aib]EGSFTSELATILDK([γGlu-C18 diacid])QAARDFIAWLIHHKITD-OH
SMILES: CC[C@H](C)[C@H](NC(=O)[C@H](Cc1ccccc1)NC(=O)[C@H](CC(=O)O)NC(=O)[C@H](CCCNC(=N)N)NC(=O)[C@H](C)NC(=O)[C@H](C)NC(=O)[C@H](CCC(N)=O)NC(=O)[C@H](CCCCNC(=O)CC[C@H](NC(=O)CCCCCCCCCCCCCCCCC(=O)O)C(=O)O)NC(=O)[C@H](CC(=O)O)NC(=O)[C@H](CC(C)C)NC(=O)[C@@H](NC(=O)[C@@H](NC(=O)[C@H](C)NC(=O)[C@H](CC(C)C)NC(=O)[C@H](CCC(=O)O)NC(=O)[C@H](CO)NC(=O)[C@@H](NC(=O)[C@H](Cc1ccccc1)NC(=O)[C@H](CO)NC(=O)CNC(=O)[C@H](CCC(=O)O)NC(=O)C(C)(C)NC(=O)[C@@H](N)Cc1c[nH]cn1)[C@@H](C)O)[C@@H](C)O)[C@@H](C)CC)C(=O)N[C@@H](C)C(=O)N[C@@H](Cc1c[nH]c2ccccc12)C(=O)N[C@@H](CC(C)C)C(=O)N[C@H](C(=O)N[C@@H](Cc1c[nH]cn1)C(=O)N[C@@H](Cc1c[nH]cn1)C(=O)N[C@@H](CCCCN)C(=O)N[C@H](C(=O)N[C@H](C(=O)N[C@@H](CC(=O)O)C(=O)O)[C@@H](C)O)[C@@H](C)CC)[C@@H](C)CC
B5: Compound 27 (peptide)
peptide: H-H[Aib]EGSFTSELATILDK([γGlu-C18 diacid])QAARDFIAWLIYHKITD-OH
SMILES: CC[C@H](C)[C@H](NC(=O)[C@H](Cc1ccccc1)NC(=O)[C@H](CC(=O)O)NC(=O)[C@H](CCCNC(=N)N)NC(=O)[C@H](C)NC(=O)[C@H](C)NC(=O)[C@H](CCC(N)=O)NC(=O)[C@H](CCCCNC(=O)CC[C@H](NC(=O)CCCCCCCCCCCCCCCCC(=O)O)C(=O)O)NC(=O)[C@H](CC(=O)O)NC(=O)[C@H](CC(C)C)NC(=O)[C@@H](NC(=O)[C@@H](NC(=O)[C@H](C)NC(=O)[C@H](CC(C)C)NC(=O)[C@H](CCC(=O)O)NC(=O)[C@H](CO)NC(=O)[C@@H](NC(=O)[C@H](Cc1ccccc1)NC(=O)[C@H](CO)NC(=O)CNC(=O)[C@H](CCC(=O)O)NC(=O)C(C)(C)NC(=O)[C@@H](N)Cc1c[nH]cn1)[C@@H](C)O)[C@@H](C)O)[C@@H](C)CC)C(=O)N[C@@H](C)C(=O)N[C@@H](Cc1c[nH]c2ccccc12)C(=O)N[C@@H](CC(C)C)C(=O)N[C@H](C(=O)N[C@@H](Cc1ccc(O)cc1)C(=O)N[C@@H](Cc1c[nH]cn1)C(=O)N[C@@H](CCCCN)C(=O)N[C@H](C(=O)N[C@H](C(=O)N[C@@H](CC(=O)O)C(=O)O)[C@@H](C)O)[C@@H](C)CC)[C@@H](C)CC
B6: Compound 24 (peptide)
peptide: H-H[Aib]EGSFTSELATILDK([γGlu-C18 diacid])QAARDFIAWLIEHKITD-OH
SMILES: CC[C@H](C)[C@H](NC(=O)[C@H](Cc1ccccc1)NC(=O)[C@H](CC(=O)O)NC(=O)[C@H](CCCNC(=N)N)NC(=O)[C@H](C)NC(=O)[C@H](C)NC(=O)[C@H](CCC(N)=O)NC(=O)[C@H](CCCCNC(=O)CC[C@H](NC(=O)CCCCCCCCCCCCCCCCC(=O)O)C(=O)O)NC(=O)[C@H](CC(=O)O)NC(=O)[C@H](CC(C)C)NC(=O)[C@@H](NC(=O)[C@@H](NC(=O)[C@H](C)NC(=O)[C@H](CC(C)C)NC(=O)[C@H](CCC(=O)O)NC(=O)[C@H](CO)NC(=O)[C@@H](NC(=O)[C@H](Cc1ccccc1)NC(=O)[C@H](CO)NC(=O)CNC(=O)[C@H](CCC(=O)O)NC(=O)C(C)(C)NC(=O)[C@@H](N)Cc1c[nH]cn1)[C@@H](C)O)[C@@H](C)O)[C@@H](C)CC)C(=O)N[C@@H](C)C(=O)N[C@@H](Cc1c[nH]c2ccccc12)C(=O)N[C@@H](CC(C)C)C(=O)N[C@H](C(=O)N[C@@H](CCC(=O)O)C(=O)N[C@@H](Cc1c[nH]cn1)C(=O)N[C@@H](CCCCN)C(=O)N[C@H](C(=O)N[C@H](C(=O)N[C@@H](CC(=O)O)C(=O)O)[C@@H](C)O)[C@@H](C)CC)[C@@H](C)CC

These binders were tested against T1, human GLP-2 receptor (hGLP2-R) (assay: cell-based or functional assay).

| Binder | EC50 GLP-2 (nM), cAMP AlphaScreen |
| --- | --- |
| B1 | 0.33 nM |
| B2 | 0.51 nM |
| B3 | 0.24 nM |
| B4 | 0.59 nM |
| B5 | 1.1 nM |
| B6 | 0.17 nM |

Each binder was assayed against human glucagon-like peptide 1 receptor (GLP-1R) (human, UniProt P43220) (assay: cell-based or functional assay).

| Binder | EC50 GLP-1 (nM), cAMP AlphaScreen |
| --- | --- |
| B1 | 0.094 nM |
| B2 | 0.36 nM |
| B3 | 0.13 nM |
| B4 | 0.29 nM |
| B5 | 0.45 nM |
| B6 | 0.21 nM |
